According to patent publication US20230087385A1, “Use of SAA, rSAA or inhibitors of SAA in the treatment of dysregulated inflammation” (LIKA ANTISEPSIS GBR, priority 2020, published 2023):

Tests used:
neutrophils = test: Anti-inflammatory potential of SAA on neutrophils (oxidative burst, migration, myeloperoxidase release, O2-release); type: cell-based
Experimental: The anti-inflammatory potential of SAA on neutrophils has been confirmed for SAA at reported serum concentrations. […] However, at higher concentrations of more than 50 μg/ml, SAA was stimulating. In addition, O2-release was inhibited up to 0.1 μg/ml, but the O2-release was increased above that. Thus, SAA plays a dual role, it down-regulates inflammatory processes in lower concentration but, during the full APR, the action of SAA can be promoting.

human neutrophils [1] = test: FMLP-induced oxidative burst of normal human neutrophils; type: cell-based; conditions: SAA at 0.1 μg/ml and 1.0 μg/ml
Excerpt: (§1) This was the first time that a function of SAA was blocked by a monoclonal AA antibody. The monoclonal antibody mc29 used probably also blocks the laminin-like domain (aa 29-33) and may also be participating partially with the RGD-like domain (aa 39-41). In addition, human neutrophils were exposed to full human APS at different temperatures. […] This indicated an irreversible structural change of SAA (or its fragments) during high fever, which is blocking SAA's return to the reversible binding to HDL. (This febrile temperature-that induced the aggregation of AA-antigenic proteins has also been noticed in vitro and documented in FIG. 2 at 38° C. and 40° C.). The possibly unfavorable consequences of these aggregates in humans or animals are unknown today.

human neutrophils [2] = test: Binding of SAA to human neutrophils
Excerpt: as §1

[3] = Immunodiffusion of SAA-HDL containing acute phase serum with polyclonal anti-AA at different temperatures; type: physicochemical; conditions: added to normal human serum
Experimental: Immunodiffusion (ID) at different temperatures. The ID was performed in 1.5% Seakem Agarose in 0.03 M barbital buffer, pH 8.6 with the same reagents in each of the three plates a 6 wells (A-C). Top and bottom well contained AA (0.1 mg/ml), the middle well contained polyclonal rabbit anti-AA antibodies undiluted and the 4 side wells contained elevated SAA-HDL containing APS from 4 patients at 1/10 diluted. Plate A after diffusion over night at room temperature, plate B at 4° C. over night and plate C first at 4° over night as plate B at 4° C. followed by room temperature for 6 hs similar to plate A.
In FIG. 1A, one recognizes a line of identity of AA with all four patients' sera as if the SAA (probably SAA1 and SAA2) reaction were done with pure SAA. At 4° C. in FIG. 1B, however, there is no reaction with SAA-HDL in serum. This is due to the hiding of the AA-reactive parts of SAA through HDL. […] Therefore, the separation of SAA from HDL is temperature-dependent.

[4] = SAA at reported serum concentrations

In the case of “aa 1-14: SAA peptide aa 1-14 (RSFFSFLGEAFDGA; UniProt P0DJI8 19-32, looked up, fragment)”, the “contribution of SAA peptides to the inhibitory effect on neutrophils” value (neutrophils) is reported as “contributed to this inhibitory effect”.

With “83-104: SAA peptide aa 83-104 (NEWGRSGKDPNHFRPAGLPEKY; UniProt P0DJI8 101-122, looked up, fragment)” the “contribution of SAA peptides to the inhibitory effect on neutrophils” value (neutrophils) was “contributed to this inhibitory effect”.

B1: SAA: serum amyloid A protein, 12.5 kDa acute phase protein isolated from human serum (protein)
chain: RSFFSFLGEAFDGARDMWRAYSDMREANYIGSDKYFHARGNYDAAKRGPGGAWAAEVITDARENIQRFFGHGAEDS
For B1, the “FMLP-induced oxidative burst of normal human neutrophils” value (human neutrophils [1]) was “reduced, concentration-dependently”, the “binding with human neutrophils” value (human neutrophils [2]) was “Strong binding” and the migration of neutrophils (neutrophils; [4]) was “inhibited”. For the same molecule, the neutrophil myeloperoxidase release (neutrophils; [4]) was “inhibited”, the “oxidative burst of neutrophils” value (neutrophils; [4]) was “inhibited” and the O2-release (neutrophils; above 0.1 μg/ml) was “increased”. The “effect on neutrophils at higher concentrations” value (neutrophils; more than 50 μg/ml) was “stimulating” and the O2-release (neutrophils; up to 0.1 μg/ml) was “inhibited”.

B2: recombinant SAA2: recombinant serum amyloid A2 protein (SEQ ID NO: 2: human SAA2) (protein, UniProt P0DJI9 19-122, looked up)
Serum amyloid A-2 protein: RSFFSFLGEAFDGARDMWRAYSDMREANYIGSDKYFHARGNYDAAKRGPGGAWAAEVISNARENIQRLTGRGAEDSLADQAANKWGRSGRDPNHFRPAGLPEKY
For B2, the “binding with human neutrophils” value (human neutrophils [2]) was “Strong binding” and the “temperature-dependent immunodiffusion behavior as in FIG. 1” value [3] was “repeat exactly that behavior”.
